Values of other authors as cited in patent publication US20190350851A1, “DOSE RESPONSE, SURFACE MODIFIED NANOTUBES” (MOLECULAR REBAR DESIGN, LLC, priority 2018, published 2019).
Like-named read-outs stand apart in the source and are kept apart here.

Conditions: in water

Row | Molecule | Hydrodynamic Radius [nm] | Hydrodynamic Radius (listed as bovine serum albumin) [nm]
1 | Bovine serum albumin | 7.0 | 7
2 | Cytochrome C | 2.64 | 
3 | NC(=O)CC[C@@H]1NC(=O)[C@H](Cc2ccccc2)NC(=O)[C@H](Cc2ccc(O)cc2)NC(=O)CCSSC[C@@H](C(=O)N2CCC[C@H]2C(=O)N[C@H](CCCN=C(N)N)C(=O)NCC(N)=O)NC(=O)[C@H](CC(N)=O)NC1=O [Desmopressin, reference compound] | 0.88 | 
4 | CN1CCCC1c1cccnc1 (centres unmarked) [Nicotine, reference compound] | 0.38 | 
5 | O=C(O)c1cccnc1 [Niacin, reference compound] | 0.33 | 
6 | Insulin | 2.1 | 
7 | Myoglobin (protein, UniProt P02144 2-154, looked up) Myoglobin: GLSDGEWQLVLNVWGKVEADIPGHGQEVLIRLFKGHPETLEKFDKFKHLKSEDEMKASEDLKKHGATVLTALGGILKKKGHHEAEIKPLAQSHATKHKIPVKYLEFISECIIQVLQSKHPGDFGADAQGAMNKALELFRKDMASNYKELGFQG | 3.34 | 
